In experiment [1] the target is T1, 重组AFP抗原 (甲胎蛋白, α-fetoprotein) (UniProt P02771 19-609, limits assumed).
T1 construct: Bought recombinant antigen used to immunise the alpaca
T1 sequence (looked up): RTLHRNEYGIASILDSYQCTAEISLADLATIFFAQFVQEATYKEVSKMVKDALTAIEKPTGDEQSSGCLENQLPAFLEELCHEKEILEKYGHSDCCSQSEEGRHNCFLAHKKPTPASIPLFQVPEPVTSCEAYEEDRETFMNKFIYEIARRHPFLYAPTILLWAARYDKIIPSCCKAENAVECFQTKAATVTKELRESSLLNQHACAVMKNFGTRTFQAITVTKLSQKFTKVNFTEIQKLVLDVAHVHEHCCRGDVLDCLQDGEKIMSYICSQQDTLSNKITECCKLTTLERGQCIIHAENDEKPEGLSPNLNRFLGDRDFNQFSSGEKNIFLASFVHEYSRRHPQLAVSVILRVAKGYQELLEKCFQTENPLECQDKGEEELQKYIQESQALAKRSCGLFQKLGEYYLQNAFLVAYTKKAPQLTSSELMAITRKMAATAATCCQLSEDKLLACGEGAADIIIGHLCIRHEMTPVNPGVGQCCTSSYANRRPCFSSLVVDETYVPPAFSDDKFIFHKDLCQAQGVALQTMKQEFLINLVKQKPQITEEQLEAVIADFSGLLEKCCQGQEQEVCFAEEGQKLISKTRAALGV
Kind of experiment: Biacore sequential injection on immobilised antigen. On the technique in general: Surface plasmon resonance follows binding to a sensor surface in real time, without labels.

A further experiment deals with T2, 血清标本中的AFP抗原 (UniProt P02771 19-609).
T2 construct: AFP in serum samples, detected by the double-antibody sandwich assay; also called 质控血清AFP; 标准血清中的AFP
T2 sequence (looked up): T1 sequence (looked up)
Nature of the experiment: Double-antibody sandwich chemiluminescence immunoassay, detection antibody.

B1: 纳米抗体1C5 (VHH)
VHH: QVQLQESGGGLVQAGGSLRLSCKASERTFSSYSMAWYRQAPGKKREFVASISWDDERTYYTDSVKGRFTISRPNAKNTVYLQMNSLKPEDTAVYYCAVGGLSDGLGPSYDYWGQGTQVTVSS
On to B1, for which the binding result in experiment [1] is “binds”.

B2: 带有化学发光区序列的纳米抗体1C5-HAP (other)
chain: QVQLQESGGGLVQAGGSLRLSCKASERTFSSYSMAWYRQAPGKKREFVASISWDDERTYYTDSVKGRFTISRPNAKNTVYLQMNSLKPEDTAVYYCAVGGLSDGLGPSYDYWGQGTQVTVSSGGGGSGGGGSGGGGSIIPVEEENPDFWNREAAEALGAAKKLQPAQTAAKNLIIFLGDGMGVSTVTAARILKGQKKDKLGPEIPLAMDRFPYVALSKTYNVDKHVPDSGATATAYLCGVKGNFQTIGLSAAARFNQCNTTRGNEVISVMNRAKKAGKSVGVVTTTRVQHASPAGTYAHTVNRNWYSDADVPASARQEGCQDIATQLISNMDIDVILGGGRKYMFRMGTPDPEYPDDYSQGGTRLDGKNLVQEWLAKRQGARYVWNRTELMQASLDPSVTHLMGLFEPGDMKYEIHRDSTLDPSLMEMTEAALRLLSRNPRGFFLFVEGGRIDHGHHESRAYRALTETIMFDDAIERAGQLTSEEDTLSLVTADHSHVFSFGGYPLRGSSIFGLAPGKARDRKAYTVLLYGNGPGYVLKDGARPDVTESESGSPEYRQQSAVPLDEETHAGEDVAVFARGPQAHLVHGVQEQTFIAHVMAFAACLEPYTACDLAPPAGTTD
notes: Expressed in 293 cells
B2: in the experiment with 血清标本中的AFP抗原, the binding result is listed as “binds”.

The values above are taken from CN113214399A (SHENZHEN INNOVA NANOBODI CO LTD, dated 2021).
